Experimental data taken from patent US9012606B2, “In vivo half life increased fusion protein or peptide maintained by sustained in vivo release, and method for increasng in vivo half-life using same” (Alteogen, Inc., priority 2009, dated 2015).

Columns and labels:
[1] = system: rat lymphoma cell line (NB2 cell); assay: In vitro activity in NB2 cells (MTS method); type: cell-based; settings: 48 hrs
Method: The rat lymphoma cell line (NB2 cell) was maintained in RPMI1640 supplemented with 10% HS (Horse serum), 10% FBS, 2-mercaptoethanol and antibiotics at 37° C. under a 5% CO2 condition. For 24 hrs before experiment, NB2 cells were incubated in RPMI 1640 supplemented with 10% HS. Thereafter, the NB2 cells were washed once with 1×DPBS (Dulbecco's Phosphate Buffered Saline), and plated at a density of 2×10^4 cells/100 μL/well in 5% HS-supplemented RPMI 1640 in 96-well plates (Corning, U.S.A.) with final volume of 100 μL. A series of concentrations of the samples were added in an amount of 20 μL to each well of the 96-well plates, followed by incubation at 37° C. for 48 hrs under a 5% CO2 condition. Subsequently, 20 μL of an MTS solution (Promega, U.S.A.) was added to each well of the 96-well plates and allowed to react at 37° C. for 3 hrs under a 5% CO2 condition. The reaction was terminated by adding 20 μL of 10% SDS (sodium dodecyl sulfate) to each well. Absorbance was measured at 490 nm using a VersaMax microplate reader (Molecular Device, U.S.A.).

[2] = Pharmacokinetics of hGH and hGH/alpha-1 antitrypsin fusions (serum ELISA); type: in vivo; settings: Sprague-Dawley rats, subcutaneous, 720 μg/kg
Method: An anti-human growth hormone monoclonal antibody (Medix Biochemica, Finland) was diluted to a concentration of 1-5 μg/mL in phosphate buffered saline (PBS) and the dilution was aliquoted in an amount of 100 μL/well onto a 96-well plate (Nunc, Denmark) and incubated at room temperature for 15-18 hrs. After the antibody remaining suspended was removed, PBS containing 1% bovine serum albumin was plated in an amount of 250 μL/well and incubated at room temperature for 2 hours. The plates were washed three times with wash buffer (0.05% Tween 20, PBS) and the solution was aspirated. Samples were diluted in PBS containing 1% bovine serum albumin and added to the 96-well plates before incubation at room temperature for 2 hrs. The 96-well plates were washed five times with wash buffer and 100 μL of the human growth hormone monoclonal antibody-biotin conjugate prepared using sulfo-NHS-biotin (Pierce biotechnology, U.S.A.) was added to each well of the 96-well plates and then incubated at room temperature for 2 hrs. The plates were washed five times with wash buffer and incubated with streptabidin-HRP at room temperature for 30 min. Again, the plates were washed five times with wash buffer and reacted with 100 μL of a mixture of TMB (3,3′,5,5′-tetramethylbenzidine) and hydrogen peroxide per well for 30 min in a dark place. To each well was added 100 μL of 1 M sulfuric acid to terminate the reaction, followed by measuring absorbance at 450 nm on a VersaMax microplate reader (Molecular Device, U.S.A.). Values for each sample were calculated by regression analysis after a standard curve was plotted for a reference material.
Sprague-Dawley rats were used as experimental animals and three of them were administered with human growth hormone while five rats were assigned to each of the fusion-administered groups. The human growth hormone/alpha-1 antitrypsin fusion [T109wt: α1AT/hGH], the human growth hormone/alpha-1 antitrypsin monovariant fusion [T109: α1AT(P357N)/hGH], and the human growth hormone/alpha-1 antitrypsin divariant fusion [T109T: α1AT(P357N, S359T)/hGH], all prepared in Examples 1-3, were subcutaneously injected at a dose of 720 μg/kg into respective groups of Sprague-Dawley rats. The samples were diluted in PBS before injection. Blood samples were taken at 0, 1, 2, 4, 8, 12, 16, 24, 30 and 48 hrs after the injection, and centrifuged to obtain sera. For a control, Scitropin (SciGen, Singapore), a kind of human growth hormone, was subcutaneously injected at a dose of 200 μg/kg. PBS was used as a diluent. Blood samples were taken at 0, 0.33, 1, 2, 5, 8, 12, 18, 24, 30 and 48 hrs after the injection, and centrifuged to obtain sera. Each sample was analyzed in the same manner as the enzyme immunoassay of Test Example 1.

trypsin = target: T1, trypsin (Bos taurus, UniProt P00760); assay: Inhibitory activity against trypsin; type: biochemical; settings: trypsin and fusion 10 nM each, 1 hr room temperature
T1 construct: gene PRSS1
T1 sequence (P00760 24-246): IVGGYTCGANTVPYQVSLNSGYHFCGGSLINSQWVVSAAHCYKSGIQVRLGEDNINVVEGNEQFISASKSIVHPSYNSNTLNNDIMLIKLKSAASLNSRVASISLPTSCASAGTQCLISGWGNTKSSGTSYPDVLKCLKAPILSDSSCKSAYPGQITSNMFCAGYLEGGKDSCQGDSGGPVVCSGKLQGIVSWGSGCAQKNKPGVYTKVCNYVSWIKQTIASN
Method: (§1) The human growth hormone/alpha-1 antitrypsin fusion [T109wt: α1AT/hGH] prepared in Example 1 and the human growth hormone/alpha-1 antitrypsin monovariant fusion [T109: α1AT(P357N)/hGH] prepared in Example 1 were separately mixed with trypsin. Trypsin and the fusions were used at a concentration of 10 nM, respectively. After being incubated at room temperature for 1 hr, the mixture was reacted with 0.2 mM of the substrate N-Benzoyl-Val-Gly-Arg p-nitroanilide hydrochloride (Sigma, U.S.A.), followed by measuring absorbance at 405 nm. Trypsin unit was set to be the concentration of substrate causing a change in absorbance of 0.001 and the enzyme activity was expressed as units/mg trypsin. For comparison, trypsin was used as a control.

[3] = target: T2, human neutrophil elastase (Homo sapiens, UniProt P08246); assay: Inhibitory activity against human neutrophil elastase; type: biochemical; settings: elastase and fusion 40 nM each, 1 hr room temperature
T2 sequence (P08246 30-267): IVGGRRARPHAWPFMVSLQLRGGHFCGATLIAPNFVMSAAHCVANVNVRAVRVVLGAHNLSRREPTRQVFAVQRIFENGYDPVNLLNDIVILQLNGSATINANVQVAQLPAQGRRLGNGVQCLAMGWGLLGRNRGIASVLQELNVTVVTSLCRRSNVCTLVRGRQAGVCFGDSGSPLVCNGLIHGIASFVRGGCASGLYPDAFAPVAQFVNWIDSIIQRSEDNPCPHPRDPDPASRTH
Method: as §1, with “with human neutrophil elastase. The elastase” for “with trypsin. Trypsin”, “of 40” for “of 10”, “with 1” for “with 0.2”, “substrate MeOSuc-AAPV-pNA (Santa Cruz Biotechnology, Inc.,” for “substrate N-Benzoyl-Val-Gly-Arg p-nitroanilide hydrochloride (Sigma,”, “nm. Human neutrophil elastase” for “nm. Trypsin”, “units/mg elastase.” for “units/mg trypsin. For comparison, trypsin was used as a control.”

- EC50 [1]: 0.212 nM
- Ka (association equilibrium constant) with trypsin (trypsin): about 7.5×10^8 M^−1
- inhibition of human neutrophil elastase [3]: ~100%
Substance: human growth hormone/alpha-1 antitrypsin fusion [T109wt]
- serum half-life (t1/2) [2]: 5.3 h
- time to peak serum concentration (Tmax) [2]: 8 h
